Data: the Human Domainome abundance scans (Beltran et al. 2025)
± gives the uncertainty stated by the source.

B1: POU domain, class 3, transcription factor 2, residues 262 to 338; numbered along this chain, P20265 (parent)
chain: EDTPTSDDLEQFAKQFKQRRIKLGFTQADVGLALGTLYGNVFSQTTICRFEALQLSFKNMCKLKPLLNKWLEEADSS
B2: Lysine-specific demethylase 2B, residues 656 to 722; numbered along this chain, Q8NHM5 (parent)
chain: LPHTAVCLVCGEAGKEDTVEEEEGKFNLMLMECSICNEIIHPGCLKIKESEGVVNDELPNCWECPKC

Variants of: B1
Assay: abundance fitness (aPCA) (normalised: wild type 0, dead -1); higher = more abundant; growth selection in yeast, the domain comes from the species named
Conditions: Homo sapiens

Variant | abundance fitness
K69Y | 0.138 ± 0.16
I47N | -0.798 ± 0.23
I47A | -0.751 ± 0.068
I47K | -0.701 ± 0.085
F57T | 0.01 ± 0.036
F57H | -0.015 ± 0.06
F57V | -0.033 ± 0.028
Q15R | -0.035 ± 0.027
Q15L | -0.067 ± 0.039
Q15Y | 0.092 ± 0.076
C48E | 0.085 ± 0.035
C48P | -0.115 ± 0.044
C48H | -0.029 ± 0.072
C48D | 0.052 ± 0.048
C48M | 0.059 ± 0.043
C48G | 0.022 ± 0.025
C48N | -0.071 ± 0.11
I21Y | -0.489 ± 0.088
I21Q | 0.005 ± 0.04
R49Y | -0.499 ± 0.12
A28L | -0.196 ± 0.04
D8Q | 0.055 ± 0.054
D8S | 0.034 ± 0.037
T5I | -0.006 ± 0.075
T5V | -0.108 ± 0.031
K62E | 0.006 ± 0.038

Variant | abundance fitness
K62Y | -0.263 ± 0.07
K62G | -0.189 ± 0.027
K62N | -0.151 ± 0.068
K62P | -0.99 ± 0.15
Q18N | -0.292 ± 0.22
F16C | -0.765 ± 0.076
V30T | -0.501 ± 0.083
V30H | -0.529 ± 0.19
S43M | -0.569 ± 0.071
S43P | -0.102 ± 0.041
S43C | -0.042 ± 0.05
S43H | 0.007 ± 0.075
S43W | -0.5 ± 0.062
G24C | -0.575 ± 0.053
G24P | -0.714 ± 0.069
G24K | -0.295 ± 0.043
T36C | -0.156 ± 0.051
T36L | -0.194 ± 0.037
T36M | -0.11 ± 0.042
T36G | -0.079 ± 0.027
E51L | -1.05 ± 0.14
E51P | -0.795 ± 0.11
E51I | -0.503 ± 0.14
E51R | -0.638 ± 0.049
E51Y | -0.999 ± 0.36
F12D | -0.561 ± 0.23

Variant | abundance fitness
F12I | -0.66 ± 0.3
F25C | -0.192 ± 0.05
F25W | -0.149 ± 0.035
F25Y | 0.041 ± 0.057
N68G | 0.074 ± 0.065
N68R | -0.004 ± 0.074
N68P | -0.98 ± 0.47
N68T | 0.046 ± 0.085
A13C | -0.156 ± 0.048
A13L | -0.759 ± 0.082
L53H | -0.017 ± 0.069
L53C | 0.044 ± 0.042
L53K | -0.06 ± 0.06
L53P | -0.961 ± 0.28
L53S | -0.007 ± 0.038
A52R | -0.181 ± 0.029
A52K | -0.07 ± 0.04
G31D | -0.385 ± 0.08
G31E | -0.224 ± 0.04
G31L | -0.59 ± 0.057
G31C | -0.009 ± 0.042
G31H | -0.287 ± 0.084
K17C | -0.442 ± 0.061
K17L | -0.597 ± 0.044

Variants of: B2
Assay: as above
Conditions: Homo sapiens

Variant | abundance fitness
V6A | -0.557 ± 0.25
V6S | -0.094 ± 0.17
V6E | -0.378 ± 0.19
V6L | -0.004 ± 0.1
V6I | 0.145 ± 0.088
V6R | -0.285 ± 0.14
V6P | -0.124 ± 0.14
V6Q | -0.541 ± 0.3
V6H | 0.409 ± 0.22
V6N | -0.085 ± 0.23
V6D | -0.293 ± 0.49
V6K | 0.194 ± 0.1
V6W | -0.759 ± 0.2
V6G | -0.64 ± 0.12
V6T | 0.12 ± 0.13
P2K | 0.78 ± 0.15
P2S | 0.729 ± 0.13
P2D | 0.787 ± 0.15
P2R | 0.664 ± 0.11
P2G | 0.588 ± 0.14
P2L | 0.807 ± 0.12
P2C | 0.396 ± 0.13
P2A | 0.708 ± 0.14

Variant | abundance fitness
P2T | 0.844 ± 0.1
P2Y | 0.713 ± 0.097
P2E | 0.854 ± 0.14
P2W | 0.667 ± 0.14
P2I | 0.783 ± 0.15
P2F | 0.359 ± 0.31
P2N | 0.758 ± 0.17
P2Q | 0.184 ± 0.15
L1H | -0.174 ± 0.48
L1T | 0.035 ± 0.1
L1A | -0.175 ± 0.22
L1M | 0.071 ± 0.082
L1W | -0.426 ± 0.12
L1C | 0.414 ± 0.19
L1R | -0.185 ± 0.14
L1G | -0.129 ± 0.13
L1E | -0.245 ± 0.33
L1S | -0.069 ± 0.089
L1F | 0.761 ± 0.073
L1I | 0.781 ± 0.11
L1Q | -0.468 ± 0.24
L1K | -0.363 ± 0.14
L1N | 1.01 ± 0.2

Variant | abundance fitness
A5G | -0.338 ± 0.17
A5N | -0.051 ± 0.26
A5T | 0.138 ± 0.16
A5L | -0.004 ± 0.13
A5Q | -0.095 ± 0.22
A5P | 0.006 ± 0.13
A5S | -0.192 ± 0.15
A5C | 0.07 ± 0.3
A5E | -0.696 ± 0.29
A5M | 0.195 ± 0.088
A5R | 0.073 ± 0.14
A5Y | 0.625 ± 0.35
A5D | -0.726 ± 0.34
A5K | 0.038 ± 0.17
A5W | 0.055 ± 0.17
T4C | -0.395 ± 0.2
T4M | -0.878 ± 0.24
T4E | -0.448 ± 0.16
T4A | -0.889 ± 0.26
T4L | -1.21 ± 0.39
T4S | -0.345 ± 0.16
T4D | -0.2 ± 0.21
T4W | -0.889 ± 0.23

Variant | abundance fitness
T4K | -0.964 ± 0.48
T4Q | -0.729 ± 0.36
T4V | -0.947 ± 0.28
T4G | -0.623 ± 0.17
T4I | -0.288 ± 0.46
T4R | -0.979 ± 0.23
T4N | -0.205 ± 0.25
H3F | -0.359 ± 0.17
H3E | 0.34 ± 0.13
H3W | -0.572 ± 0.12
H3Y | -0.328 ± 0.25
H3A | -0.013 ± 0.12
H3C | -0.642 ± 0.17
H3N | 0.177 ± 0.16
H3M | 0.478 ± 0.15
H3Q | -0.015 ± 0.12
H3P | -0.14 ± 0.14
H3L | 0.048 ± 0.074
H3G | 0.42 ± 0.067
H3T | 0.147 ± 0.087
H3K | 0.506 ± 0.1
H3V | 0.234 ± 0.089
